Laboratory results from patent US9932390 (SHRINERS HOSPITAL FOR CHILDREN, dated 2018).
Each block holds one binder with its values, some of them ahead of it. Positions of bridges follow the written chain, without caps; N, C: chain ends. Chains are numbered I, II in the order given. No end group written: not given here.

Experiments:
α3NC2-(GPP)5CC = biological target: T1, α3NC2-(GPP)5CC (human, not fully specified; chain 1: Cys60 and Cys61 (collagen III cystine knot) form interchain disulfides in the oxidized trimer. Cys15 is also counted as oxidized in the calculated trimer mass.); test: oxidative folding of the three Trx fusions, non-reducing SDS-PAGE
T1 construct: Mixed and reoxidized as a His-tagged thioredoxin fusion, then characterized after thrombin cleavage as part of α123NC2-(GPP)5CC; also called Trx_α3NC2-(GPP)5CC (before thrombin cleavage)
T1 peptide: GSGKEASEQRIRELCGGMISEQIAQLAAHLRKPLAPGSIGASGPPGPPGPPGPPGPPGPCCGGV
Protocol: Initially the purified constructs either with or without collagenous part were folded under the same oxidative conditions. The three chains of approximately equal concentrations were mixed, diluted with water and the buffer was adjusted to 100 mM Tris/HCl buffer, pH 8.6, containing 15 mM Na-phosphate, 150 mM NaCl, 150 mM imidazol, 10 mM reduced glutathione, 1 mM oxidized glutathione at 25° C. Final concentration of each chain was ~10 µM. The solution was sequentially incubated at 37° C. for 24 hours, at 30° C. for 24 hours, 25° C. for 24 hours and the pH value was periodically checked and adjusted to be not lower than 8.3. Finally, the solution was extensively dialyzed against 50 mM Tris/HCl buffer, pH 8, containing 150 mM NaCl, at room temperature to remove imidazol and reducing agents.
1.11.3. Results: Initial Purification of Fusion Proteins Trx_α1NC2-(GPP)_5C, Trx_α2NC2-(GPP)_5CC and Trx_α3NC2-(GPP)5CC and their Reoxidation Soluble fractions of cell lysates were separately purified over the Ni-NTA resin and analyzed on a gel (FIG. 2A, lanes 1-3). In addition to bands corresponding to monomeric species around 20 kDa, dimeric, trimeric and ladders of higher multimers were observed, indicating formation of multiple intermolecular disulfide bonds, presumably due to misfolding. […]

[1] = biological target: T2, α2NC2 (NC2 domain of the human collagen IX α2 chain) (human); test: CD at 222 nm, thermal transition at 1.87 µM complex, pH 4.5, bimolecular two-state fit
T2 construct: Expressed as the Trx_α2NC2 fusion and cleaved with thrombin; also called U2
T2 peptide: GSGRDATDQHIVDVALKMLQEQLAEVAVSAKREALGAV
Protocol: (§1) FIG. 9. Thermal transitions of the NC2-containing complexes. A, Thermal transition curves of α123NC2-(GPP)_5CC were recorded in 50 mM sodium acetate buffer, pH 4.5, supplemented with 0M (green circles), 1M (red circles for heating and blue circles for cooling), and 2M (cyan circles) guanidine hydrochloride using 7 μM complex concentrations and a 1-mm path length quartz cuvette. The change in collagen triple helical and α-helical contents was monitored at 230 nm with a scan rate of 1° C./min. […] The first transition followed by the increase of the CD signal is associated with the unfolding of the collagen triple helix, whereas the second transition is associated with the unfolding of the NC2 domain. […] The change in α-helical content was monitored at 222 nm with a scan rate of 0.25° C./min. The curves were globally fitted (white lines) as described herein.
(§2) Since the α1NC2 chain is disulfide-linked to the α3NC2 chain, only two products dissociates from the complex upon denaturation and the folding reaction should be considered as bimolecular. According to this and other assumptions (see 1.1.-1.10., above), two transitions using a 10-fold difference in concentrations of the complex were separately globally fitted and yielded similar values of the standard enthalpy, $\Delta H^0$, and the standard entropy, $\Delta S^0$.

[2] = biological target: T2, α2NC2 (NC2 domain of the human collagen …); test: CD at 222 nm, thermal transition at 18.7 µM complex, pH 4.5, bimolecular two-state fit
Protocol: as §1, §2

binding result (α3NC2-(GPP)5CC): binds
B1: α1NC2-(GPP)5CC (peptide)
peptide: GSGYPGRAPTDQHIKQVCMRVIQEHFAEMAASLKRPDSGATGASGPPGPPGPPGPPGPPGPCCGGV
modifications: not fully specified; also: interchain disulfides via Cys62 and Cys63 in the trimer with other chains
notes: Mixed and reoxidized as a His-tagged thioredoxin fusion, then characterized after thrombin cleavage as part of α123NC2-(GPP)5CC; also called Trx_α1NC2-(GPP)5CC (before thrombin cleavage)

ΔH^0 (standard enthalpy of U13+U2 to N) [1]: -200 kJ/(mol complex)
ΔS^0 (standard entropy of U13+U2 to N) [1]: -500 J/(mol complex K)
ΔH^0 (standard enthalpy of U13+U2 to N) [2]: -203 kJ/(mol complex)
ΔS^0 (standard entropy of U13+U2 to N) [2]: -502 J/(mol complex K)
B2: disulfide-bonded α1NC2-α3NC2 (NC2 domains of the human collagen IX α1 and α3 chains, linked by a disulfide) (other)
chain 1: GSPTDQHIKQVCMRVIQEHFAEMAASLKRPDS
chain 2: GSASEQRIRELCGGMISEQIAQLAAHLRKPLAP
modifications: disulfide I:12-II:12 (inferred)
notes: Part of the α123NC2 complex after removal of His-tagged thioredoxin; also called α1-α3; U13
Tm (midpoint of the coupled unfolding and dissociation) [1]: 51.2 ° C.
Tm (midpoint of the coupled unfolding and dissociation) [2]: 65.8 ° C.
